What all share (test): cell-cell adhesion assay
Assay [1] has as its target human CD8 alpha mutant M5 (human) (UniProt P01732).
Assay [2] concerns the target human CD8 alpha mutant M1 (human).
The target in assay [3] is human CD8 alpha mutant M9 (human) (UniProt P01732).
Assay [4] deals with human CD8 alpha mutant M7 (human).
The target in assay [5] is human CD8 alpha mutant M8 (human) (UniProt P01732).
The target in assay [6] is human CD8 alpha mutant M3 (human).
Assay [7] addresses human CD8 alpha mutant M6 (human).
Assay [8] has as its target mouse CD8 alpha (Lyt-2) (mouse) (UniProt P01731).
Sequence of UniProt P01731 (P01731 28-247): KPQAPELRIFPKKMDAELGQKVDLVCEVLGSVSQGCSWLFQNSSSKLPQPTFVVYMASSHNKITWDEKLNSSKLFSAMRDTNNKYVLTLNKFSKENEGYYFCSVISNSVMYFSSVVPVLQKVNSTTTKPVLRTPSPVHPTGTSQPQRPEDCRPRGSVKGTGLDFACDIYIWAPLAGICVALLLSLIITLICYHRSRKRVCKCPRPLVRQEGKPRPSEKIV
For assay [9], the target named is human CD8 alpha mutant M10 (human).
In assay [10] the target is human CD8 alpha mutant M2 (human) (UniProt P01732).
For assay [11], the target named is human CD8 alpha mutant M4 (human) (UniProt P01732).

On to “HLA class I on the human B lymphoblastoid cell line UC”, for which the percent binding relative to wild type was 11% in [1]; 15.7% in assay [2]; 56.9% in [3]; 31.3% in assay [4]; greater than 80% in assay [5]; 13.5% in [6]. Further, the percent binding relative to wild type is 49.1% in assay [7]; -0.6 to 5.8% in assay [8]; 42.6% in assay [9]; 1.7% in [10]; greater than 80% in assay [11].

Source of the values: paper PMC2118910.
